Where two headings read alike, the source gives them in different places.
Experiments:
Assay in all cases: ELISA
[1] = molecular target: His-tagged ASH/RhoGAP domain of OCRL (536aa-901aa) (human) (UniProt Q01968)
[2] = molecular target: His-tagged ASH/RhoGAP domain of OCRL (536aa-901aa) (human) (UniProt Q01968); remark: listed apart in the source
[3] = molecular target: His-tagged ASH/RhoGAP domain of OCRL (536aa-901aa) (human) (UniProt Q01968); remark: listed apart in the source

Sequence of His-tagged ASH/RhoGAP domain of OCRL (536aa-901aa) (human) (Q01968 536-901): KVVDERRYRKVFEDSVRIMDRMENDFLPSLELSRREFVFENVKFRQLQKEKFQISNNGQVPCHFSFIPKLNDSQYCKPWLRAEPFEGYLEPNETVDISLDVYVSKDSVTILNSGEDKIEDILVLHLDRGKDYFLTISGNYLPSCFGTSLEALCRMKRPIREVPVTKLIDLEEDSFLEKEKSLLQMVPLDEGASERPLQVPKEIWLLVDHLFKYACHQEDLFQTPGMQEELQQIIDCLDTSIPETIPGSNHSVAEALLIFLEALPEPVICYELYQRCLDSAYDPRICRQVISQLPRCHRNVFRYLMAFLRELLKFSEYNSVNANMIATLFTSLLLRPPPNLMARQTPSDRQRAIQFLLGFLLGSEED

Substance	EC50 [1] [nM]	EC50 [2] [nM]	EC50 [3] [nM]
GST-SdhA-CBM2 (from UniProt Q6RCQ3 1029-1260) (domain or fragment)	87.4	80.7	–
GST-SdhA-CBM2A (from UniProt Q6RCQ3 1029-1080) (domain or fragment)	–	27.2	8.1

Reference: publication doi:10.1101/2020.10.04.325654
